# Experimental data from US20250018014A1, “METHOD FOR TREATING AND/OR PREVENTING REGNASE-1-RELATED DISEASE” (OSAKA UNIVERSITY, priority 2018, published 2025).
# “Also recorded” adds a separate entry of the source.
# T1: FL_Reg1 (human full-length Regnase-1) (Homo sapiens, UniProt Q5D1E8)
# T1 construct: made in house; host or cells: Expi293 cells
# T1 sequence (Q5D1E8 1-599): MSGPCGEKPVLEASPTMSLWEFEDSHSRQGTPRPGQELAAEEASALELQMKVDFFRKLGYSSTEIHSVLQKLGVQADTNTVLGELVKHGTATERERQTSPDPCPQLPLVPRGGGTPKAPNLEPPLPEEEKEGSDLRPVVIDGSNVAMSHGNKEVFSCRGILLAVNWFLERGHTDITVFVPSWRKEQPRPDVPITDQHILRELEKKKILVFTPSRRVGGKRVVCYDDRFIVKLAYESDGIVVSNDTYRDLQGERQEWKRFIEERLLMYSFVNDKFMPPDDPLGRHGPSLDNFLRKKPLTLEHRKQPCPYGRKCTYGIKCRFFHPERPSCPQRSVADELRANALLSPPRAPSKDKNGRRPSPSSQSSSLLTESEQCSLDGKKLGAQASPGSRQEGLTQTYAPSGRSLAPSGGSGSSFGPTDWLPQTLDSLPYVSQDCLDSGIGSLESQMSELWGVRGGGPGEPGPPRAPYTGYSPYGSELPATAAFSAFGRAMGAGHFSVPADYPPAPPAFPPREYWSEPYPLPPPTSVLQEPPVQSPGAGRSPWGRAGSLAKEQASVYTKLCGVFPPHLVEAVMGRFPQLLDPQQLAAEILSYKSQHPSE
# T2: Regnase-1 phosphorylation by IKKβ (Homo sapiens, UniProt Q5D1E8)
# T2 construct: GST (N, cleaved yes); made in house; host or cells: Expi293 cells
# T2 sequence (Q5D1E8 1-599): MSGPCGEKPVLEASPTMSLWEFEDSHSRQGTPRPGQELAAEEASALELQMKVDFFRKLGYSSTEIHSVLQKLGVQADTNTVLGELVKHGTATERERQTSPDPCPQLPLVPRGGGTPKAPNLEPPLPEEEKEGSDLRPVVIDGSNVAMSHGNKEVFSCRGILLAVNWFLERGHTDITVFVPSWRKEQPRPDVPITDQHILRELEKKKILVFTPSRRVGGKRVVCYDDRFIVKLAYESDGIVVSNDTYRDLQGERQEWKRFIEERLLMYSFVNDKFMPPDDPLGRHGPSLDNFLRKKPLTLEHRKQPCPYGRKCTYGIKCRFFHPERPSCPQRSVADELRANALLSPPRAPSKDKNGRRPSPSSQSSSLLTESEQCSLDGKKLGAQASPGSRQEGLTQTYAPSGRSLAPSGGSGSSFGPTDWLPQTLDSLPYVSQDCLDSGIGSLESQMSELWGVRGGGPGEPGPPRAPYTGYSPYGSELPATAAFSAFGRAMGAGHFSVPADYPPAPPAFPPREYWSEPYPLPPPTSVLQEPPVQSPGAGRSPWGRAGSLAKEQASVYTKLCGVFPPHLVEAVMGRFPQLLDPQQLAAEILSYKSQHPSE
# B1: REA0023: anti-Regnase-1 antibody; heavy chain SEQ ID NO: 20, light chain SEQ ID NO: 21 (antibody)
# heavy: QSLEESGGDLVKPGASLTLTCTDAGFSFSGVYWMHWVRQAPGKGLEWIACINAGSSGSTYYASWAKGRFTISKPSSTTVTLQMTSLTVADTATYFCARSFTLWGPGTLVTVSSGQPKAPSVFPLAPCCGDTPSSTVTLGCLVKGYLPEPVTVTWNSGTLTNGVRTFPSVRQSSGLYSLSSVVSVTSSSQPVTCNVAHPATNTKVDKTVAPSTCSKPTCPPPELLGGPSVFIFPPKPKDTLMISRTPEVTCVVVDVSQDDPEVQFTWYINNEQVRTARPPLREQQFNSTIRVVSTLPITHQDWLRGKEFKCKVHNKALPAPIEKTISKARGQPLEPKVYTMGPPREELSSRSVSLTCMINGFYPSDISVEWEKNGKAEDNYKTTPAVLDSDGSYFLYNKLSVPTSEWQRGDVFTCSVMHEALHNHYTQKSISRSPGK
# light: AVVTQTPSSVSAAVGGTVTIKCQSSQSVGNNNYLAWFQQKPGQPPKLLIYSASTLASGVPSRFSGSGSGTQFTLTISGVQCDDAATYYCLGGYDGDGEAFYVFGGGTEVVVKGDPVAPTVLIFPPAADQVATGTVTIVCVANKYFPDVTVTWEVDGTTQTTGIENSKTPQNSADCTYNLSSTLTLTSTQYNSHKEYTCKVTQGTTSVVQSFNRGDC
# B2: REA0027: anti-Regnase-1 antibody; heavy chain SEQ ID NO: 22, light chain SEQ ID NO: 23 (antibody)
# heavy: QSLEESGGDLVKPGASLTLTCTASGFGFSSSYWMHWVRQAPGKGLEWIACINAGSSTKTYYASWAKGRFTISKPSSTTVTLQMTSLTVADTATYFCAWSFNLWGPGTLVTVSSGQPKAPSVFPLAPCCGDTPSSTVTLGCLVKGYLPEPVTVTWNSGTLTNGVRTFPSVRQSSGLYSLSSVVSVTSSSQPVTCNVAHPATNTKVDKTVAPSTCSKPTCPPPELLGGPSVFIFPPKPKDTLMISRTPEVTCVVVDVSQDDPEVQFTWYINNEQVRTARPPLREQQFNSTIRVVSTLPITHQDWLRGKEFKCKVHNKALPAPIEKTISKARGQPLEPKVYTMGPPREELSSRSVSLTCMINGFYPSDISVEWEKNGKAEDNYKTTPAVLDSDGSYFLYNKLSVPTSEWQRGDVFTCSVMHEALHNHYTQKSISRSPGK
# light: AVVTQTPSSVSAAVGGTVTIKCQSSQSVGNNNWLAWFQQKPGQPPKLLIYSASTLASGVPSRFSGSGSGTQFTLTISGVQCDDAATYYCLGGYDGDGEAFYVFGGGTEVVVKGDPVAPTVLIFPPAADQVATGTVTIVCVANKYFPDVTVTWEVDGTTQTTGIENSKTPQNSADCTYNLSSTLTLTSTQYNSHKEYTCKVTQGTTSVVQSFNRGDC
# Legend:
# [1] = system: IL-6 mRNA stability in Regnase-1AA/AA MEF; experiment: qPCR analysis of IL-6 mRNA levels in Regnase-1AA/AA MEFs after TNF-α and IL-17A, with ActD; format: cell-based, mouse; details: ActD and okadaic acid (0.5 μM)
# [2] = system: appearance of non-phosphorylated Regnase-1 in MEF; experiment: Immunoblot analysis of Regnase-1 in MEFs during the recovery phase after IL-17A stimulation; format: cell-based, mouse; details: after IL-17A (50 ng/ml) one hour; cycloheximide and okadaic acid (0.5 μM)
# Description: Total mRNA was prepared from cells treated with doxycycline for 0 to 4 hours, and then subjected to Northern blotting using [^32P] labelled probes. […] Cells were treated with IL-17A (50 ng/ml) for one hour, and subsequently incubated in a medium with no additives (control), a medium containing cycloheximide (100 μM), or a medium containing both cycloheximide and okadaic acid (0.5 μM) for 0 to 240 minutes. […] The qPCR data (A, B, and E) were collected from four independent experiments. The error bars represent mean±SEM. ***P<0.005.
# Next, the present inventors investigated the mechanism of target mRNA suppression in Regnase-1AA/AA cells. As described above, suppression of target mRNA is more enhanced at later stages of IL-17A stimulation. The present inventors used immunoblot analysis of phosphorylated and non-phosphorylated Regnase-1 during the recovery phase after the completion of IL-17A stimulation. […] The increase in the amount of non-phosphorylated Regnase-1 protein was enhanced much more strongly in Regnase-1AA/AA MEF than in wild type cells.
# [3] = system: Regnase-1 phosphorylation upon IL-17A stimulation in MEF; experiment: Immunoblot analysis of Regnase-1 in wild-type MEFs stimulated with IL-17 in the presence of BX795; format: cell-based, mouse; details: BX795 (50 μM)
# Source text: The two arrows indicate the phosphorylated form (upper) and unphosphorylated form (lower) of Regnase-1.
# To identify the kinase responsible for Regnase-1 phosphorylation in the IL-17A signaling pathway, the inventors investigated a series of MEFs lacking TBK1, IKKi, TBK1/IKKi, Act1, IKKa/IKKβ, or IRAK1/IRAK2. […] To investigate whether TBK1 and IKKi directly phosphorylate Regnase-1, the present inventors prepared recombinant Regnase-1 purified from a MEF cell line stably expressing FLAG-tagged Regnase-1. Phosphorylation of recombinant Regnase-1 by recombinant TBK1 and/or IKKi under in vitro conditions was detected as an electrophoretic mobility shift pattern by immunoblotting and ^32P autoradiography (FIG. 12-2D). […] The phosphorylation pattern of Regnase-1 by IRAK appeared to be similar to that by TBK1 and IKKi, but Regnase-1 phosphorylation occurred in IRAK1/IRAK2 double-deficient MEF (FIG. 12-2E). In contrast, Regnase-1 phosphorylation in response to IL-1β occurred in TBK1/IKKi double-deficient MEF (FIG. 12-3J).
# [4] = target: T1, FL_Reg1 (human full-length Regnase-1); experiment: Binding of anti-non-phosphorylated Regnase-1 peptide antibodies to bead-bound full length human Regnase-1 (iQue screener); details: streptavidin-immobilized beads; histograms FIG. 32
# Description: (§1) • Biotin-Conjugated FL_Reg1, Biotin-Conjugated Peptide • […], biotin-conjugated peptide • AFPPREYWSEPYPLPPPTC-NH2, and biotinylated BSA (Sigma, A8549) were each bound to streptavidin-immobilized beads.
# (§2) These beads were mixed with each anti-Regnase-1 antibody, and they were allowed to react. Thereafter, Anti-Rabbit IgG1 Alexa488 (molecular probes, A21244) was mixed and reacted, and analysis was performed with iQue screener PLUS (intellicyt). Data was analyzed with FlowJo ver10.
# [5] = target: T2, Regnase-1 phosphorylation by IKKβ; experiment: Inhibitory activity of anti-Regnase-1 antibodies against Regnase-1 phosphorylation by IKKβ (Phos-tag gel, western blotting); format: biochemical; details: antibody at final concentrations of 16.7 μg/mL and 5.0 μg/mL; relative to Control group
# Description: To a solution (ATP buffer) containing Kinase Assay Buffer III (manufactured by SignalChem) supplemented with 2 mM DTT, 100 μM sodium vanadate, 2 mM manganese chloride, and 15 μM ATP, dephosphorylated Regnase-1 was mixed at 150 nM. Four microliters of this solution and 4 μL of HEPES Buffered Saline containing 50 μg/mL or 15 μg/mL of anti-Regnase-1 antibody were mixed, and this was allowed to react for one hour. This reaction solution was mixed with 4 μL of ATP buffer containing 150 nM of each kinase (IKKβ or TBK1), and further reacted for one hour. After the reaction, 4 μL of 4× Laemmli Sample buffer (manufactured by Bio-Rad) was added and this mixture was incubated at 95° C. for five minutes for protein denaturation treatment. This sample was ice-cooled for three minutes, and 10 μL of it was added to SuperSep Phos-tag 7.5% 17 wells (manufactured by Wako) placed in EasySeparator (manufactured by Wako). […] Chemiluminescence was detected using ImageQuant LAS4000 mini (manufactured by GE Healthcare).
# A band for phosphorylated Regnase-1 was detected due to treatment with each kinase (FIG. 33A). Band densities were measured with Image Quant-TL (manufactured by GE Healthcare). The relative value for the band density of the sample to which each compound was added was calculated, considering the band density of the kinase-added sample of the Control group, to which no compound was added, as 1. […]
# [6] = target: T3, Peptide 1 ([…]), partial peptide of human Regnase-1 (Homo sapiens, UniProt Q5D1E8); experiment: Binding of anti-non-phosphorylated Regnase-1 peptide antibodies to bead-bound Peptide 1 (iQue screener); details: streptavidin-immobilized beads; histograms FIG. 32
# T3 construct: […], biotin-conjugated peptide; made in house; host or cells: chemical synthesis
# Description: as §1, §2
Molecule,IL-6 mRNA stability / half-life [1],appearance of non-phosphorylated Regnase-1 during the recovery phase [2],Regnase-1 phosphorylation upon IL-17A stimulation [3],binding to FL_Reg1 compared with biotinylated BSA [4],density of the phosphorylated Regnase-1 band in IKKβ treatment [5],binding to Peptide 1 compared with biotinylated BSA [6]
C=C1[C@@H](O)[C@@H]2O[C@]3(CC[C@H](/C=C/[C@@H](C)[C@@H]4CC(C)=C[C@@]5(O[C@H](C[C@@](C)(O)C(=O)O)CC[C@H]5O)O4)O3)CC[C@H]2O[C@@H]1[C@@H](O)C[C@H](C)[C@H]1O[C@@]2(CCCCO2)CC[C@H]1C [okadaic acid],IL-6 mRNA stability was also enhanced; also recorded: dramatic increase in the half-life of IL-6 mRNA,non-phosphorylated Regnase-1 did not appear,–,–,–,–
O=C(NCCCNc1nc(Nc2cccc(NC(=O)N3CCCC3)c2)ncc1I)c1cccs1 [BX795],–,–,inhibited Regnase-1 phosphorylation,–,–,–
B1,–,–,–,bound more strongly,decreased,bound more strongly
B2,–,–,–,bound more strongly,decreased,bound more strongly
